This note sets out measurements from FireProtDB (doi:10.1006/jmbi.2001.4728).

The conditions of this data set: Pseudomonas aeruginosa (strain ATCC 15692 / DSM 22644 / CIP 104116 / JCM 14847 / LMG 12228 / 1C / PRS 101 / PAO1); pH 7; 10 °C; Urea; Fluorescence; sodium phosphate 50 mM; reversible: yes; whole UniProt chain shown.

B1: Cytochrome c-551 wild type, P00099 (protein)
chain: MKPYALLSLLATGTLLAQGAWAEDPEVLFKNKGCVACHAIDTKMVGPAYKDVAAKFAGQAGAEAELAQRIKNGSQGVWGPIPMPPNAVSDDEAQTLAKWVLSQK
B1: the denaturant m value stood at 1.1 kcal/mol/M, the “denaturant midpoint (higher = more stable)” value amounted to 6.4 M and the unfolding free energy amounted to 7.1 kcal/mol.
